Reference: paper PMC10305218, “Expression of β-Glucosidases from the Yak Rumen in Lactic Acid Bacteria: A Genetic Engineering Approach” (Microorganisms, 2023)

Legend:
[1] = substrate: OCc1ccccc1O[C@@H]1O[C@H](CO)[C@@H](O)[C@H](O)[C@H]1O; test: DNS reducing sugar assay, Michaelis-Menten / Lineweaver-Burk fit; assay type: biochemical, Paenibacillus polymyxa; conditions: 50 °C, pH 7.0, bacterial supernatant
Description: DNS reducing sugar assay, Michaelis-Menten / Lineweaver-Burk fit on BglA

[2] = substrate: OCc1ccccc1O[C@@H]1O[C@H](CO)[C@@H](O)[C@H](O)[C@H]1O; test: as above; assay type: biochemical, Paenibacillus polymyxa; conditions: 50 °C, pH 7.0, bacterial supernatant; remark: listed apart in the source
Description: DNS reducing sugar assay, Michaelis-Menten / Lineweaver-Burk fit on BglB

B1: BglA (Paenibacillus polymyxa) (protein)
chain: MTIFQFPQDFMWGTATAAYQIEGAYQEDGRGLSIWDTFAHTPGKVFNGDNGNVACDSYHRYEEDIRLMKELGIRTYRFSVSWPRIFPNGDGEVNQEGLDYYHRVVDLLNDNGIEPFCTLYHWDLPQALQDAGGWGNRRTIQAFVQFAETMFREFHGKIQHWLTFNEPWCIAFLSNMLGVHAPGLTNLQTAIDVGHHLLVAHGLSVRRFRELGTSGQIGIAPNVSWAVPYSTSEEDKAACARTISLHSDWFLQPIYQGSYPQFLVDWFAEQGATVPIQDGDMDIIGEPIDMIGINYYSMSVNRFNPEAGFLQSEEINMGLPVTDIGWPVESRGLYEVLHYLQKYGNIDIYITENGACINDEVVNGKVQDDRRISYMQQHLVQVHRTIHDGLHVKGYMAWSLLDNFEWAEGYNMRFGMIHVDFRTQVRTPKESYYWYRNVVSNNWLETRR
notes: amplified from yak rumen metagenomic DNA; usp45 signal peptide, pMG36e, secreted by L. lactis NZ9000; about 55 kDa; gene 1361 bp; supernatant / TCA-acetone precipitate
For B1, the Km [1] was 38.61 µM, the Vmax [1] was 1340 µmol/min/mg and the kcat [1] was 435 s⁻¹. For the same protein, the kcat/Km [1] was 1.13e+07 M⁻¹ s⁻¹.

B2: BglB (Paenibacillus polymyxa) (protein)
chain: NTFIFPATFMWGTSTSSYQIEGGTDEGGRTPSIWDTFCQIPGKVIGGDCGDVACDHFHHFKEDVQLMKQLGFLHYRFSVAWPRIMPAAGIINEEGLLFYEHLLDEIELAGLIPMLTLYHWDLPQWIEDEGGWTQRETIQHFKTYASVIMDRFGERINWWNTINEPYCASILGYGTGEHAPGHENWREAFTAAHHILMCHGIASNLHKEKGLTGKIGITLNMEHVDAASERPEDVAAAIRRDGFINRWFAEPLFNGKYPEDMVEWYGTYLNGLDFVQPGDMELIQQPGDFLGINYYTRSIIRSTNDASLLQVEQVHMEEPVTDMGWEIHPESFYKLLTRIEKDFSKGLPILITENGAAMRDELVNGQIEDTGRHGYIEEHLKACHRFIEEGGQLKGYFVWSFLDNFEWAWGYSKRFGIVHINYETQERTPKQSALWFKQMMAKNGF
notes: as for B1
With B2 the Km [2] was 43.99 µM, the Vmax [2] was 1250 µmol/min/mg and the kcat [2] was 349 s⁻¹. It also gave a kcat/Km [2] of 7.93e+06 M⁻¹ s⁻¹.
